Patent publication US20230128075A1

Molecular target: HSP70 (antigen; source and nucleotide state not stated) (Homo sapiens (Human)) (UniProt P0DMV8)
Test: biosensor, anti-human Fc capture, antigen 100 nM

Sequence of HSP70 (antigen; source and nucleotide state not stated) (Homo sapiens (Human)) (P0DMV8 whole entry): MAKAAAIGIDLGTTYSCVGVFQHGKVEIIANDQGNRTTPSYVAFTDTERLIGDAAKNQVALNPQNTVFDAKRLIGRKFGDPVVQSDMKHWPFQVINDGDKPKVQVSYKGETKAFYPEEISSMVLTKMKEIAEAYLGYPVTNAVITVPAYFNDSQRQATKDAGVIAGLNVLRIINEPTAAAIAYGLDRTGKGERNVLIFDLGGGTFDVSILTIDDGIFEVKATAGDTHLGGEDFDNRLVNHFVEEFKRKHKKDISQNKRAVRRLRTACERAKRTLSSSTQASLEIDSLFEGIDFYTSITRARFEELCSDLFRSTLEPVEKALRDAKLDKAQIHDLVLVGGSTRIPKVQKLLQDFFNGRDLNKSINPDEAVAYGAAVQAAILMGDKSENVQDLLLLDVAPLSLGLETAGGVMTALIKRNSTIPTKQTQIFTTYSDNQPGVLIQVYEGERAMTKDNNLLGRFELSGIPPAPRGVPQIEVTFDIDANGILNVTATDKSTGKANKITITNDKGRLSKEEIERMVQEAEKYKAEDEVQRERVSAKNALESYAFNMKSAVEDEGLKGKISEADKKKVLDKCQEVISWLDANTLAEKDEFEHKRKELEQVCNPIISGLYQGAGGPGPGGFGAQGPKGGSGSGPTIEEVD

| Binder | % Diss [%] | X = 1495 [nM] | X = 610 [nM] |
| --- | --- | --- | --- |
| h77A-1.52 (antibody, V domains shown) VH: QIQLVQSGVEVKKPGASVKVSCKASGYIFTNYGMNWVRQAPGQGLEWMGWINTYTGEPRYADDFKGRFTFTTDTSTSTAYMELRSLRSDDTAVYFCARYDHRMDYWGQGTLVTVSS VL: EIVLTQSPDSLAVSLGERATINCKSSQSLLNSGTRKNYLAWYQQKAGQSPKLLIYWTSTRESGVPDRFSGSGSGTDFTLTIDSLQAEDVAVYYCKQSYTLYTFGGGTKVEIK | -115 | 0.0133 |  |
| h77A-1.80 (antibody, V domains shown) VH: QIQLVQSGAEVKKPGASVKVSCKASGYTFTNYGMNWVRQAPGQGLEWMGWINTYTGEPKYADDFKGRFTFTTDTSTSTAYMELRSLRSDDTAVYFCARYDHVMDYWGQGTLVTVSS VL: EIVLTQSPDSLAVSLGERATINCKSSQSLLNSGTRKNYLSWYQQKPGQSPKLIIYWTSTRESGVPDRFSGSGSGTDFTLTIDSLQAEDVAVYYCKQSYTLYTFGGGTKVEIK | -8.84 |  | 0.0181 |
| h77A-1.54 (antibody, V domains shown) VH: QIQLVQSGAEVKKPGASVKVSCKASGYTFTKYGMNWVRQAPGQGLEWMGWINTYTGEPKYGDDFKGRFTFTTDTSTSTAYMELRSLRSDDTAVYFCARYDHRMDYWGQGTLVTVSS VL: EIVLTQSPDSLAVSLGERATINCKSSQSLLNSGTRKNYLAWYQQKAGQSPKLLIYWTSTRESGVPDRFSGSGSGTDFTLTIDSLQAEDVAVYYCKQSYTLYTFGGGTKVEIK | -41.2 |  | 0.0068 |
| h77A-1.79 (antibody, V domains shown) VH: QIQLVQSGAEVKKPGASVKVSCKASGYTFTKYGMNWVRQAPGQGLEWMGWINTYTGEPRYADDFKGRFTFTTDTSTSTAYMELRSLRSDDTAVYFCARYDHRMDYWGQGTLVTVSS VL: EIVLTQSPDSLAVSLGERATINCKSSQSLLNSGTRKNYLAWYQQKPGQSPKLLIYWTSTRESGVPDRFSGSGSGTDFTLTIDSLQAEDVAVYYCKQSYNLYTFGGGTKVEIK | -37.4 |  | 0.0131 |
